In publication PMC7450108, “Pterocarpan synthase (PTS) structures suggest a common quinone methide–stabilizing function in dirigent proteins and proteins with dirigent-like domains” (The Journal of Biological Chemistry, 2020):

Columns and labels:
[1] = tested on: COc1ccc([C@H]2COc3cc(O)ccc3[C@@H]2O)c(O)c1; assay: medicarpin formation, chiral HPLC (RU-2); assay type: biochemical, Glycyrrhiza echinata; settings: 0.1 M sodium phosphate pH 6.6, 30 °C, 5 min, BSA, racemic trans-DMI supplied
From the text: (§1) medicarpin formation, chiral HPLC (RU-2) on GePTS1

[2] = tested on: COc1ccc([C@@H]2COc3cc(O)ccc3[C@@H]2O)c(O)c1; assay: medicarpin formation, chiral HPLC (RU-2); assay type: biochemical, Glycyrrhiza echinata; settings: 0.1 M sodium phosphate pH 6.6, 30 °C, 5 min, BSA, racemic cis-DMI supplied
From the text: as §1

[3] = tested on: COc1ccc([C@H]2COc3cc(O)ccc3[C@@H]2O)c(O)c1; assay: purified protein; settings: 0.1 M sodium phosphate pH 6.6, 30 °C, 5 min, BSA, racemic trans-DMI supplied, kinetics calculated on (3S,4R) conversion
[4] = tested on: COc1ccc([C@@H]2COc3cc(O)ccc3[C@@H]2O)c(O)c1; assay: purified protein; settings: 0.1 M sodium phosphate pH 6.6, 30 °C, 5 min, BSA, racemic cis-DMI supplied, kinetics calculated on (3R,4R) conversion
[5] = kinetics calculated on (3S,4R) conversion
[6] = kinetics calculated on (3R,4R) conversion
[7] = (3S,4R) converted, pET100 construct
[8] = (3R,4R) converted, pET100 construct

Substance	Km [1, 7]	kcat [1, 7]	kcat/Km [1, 7]	Km [2, 8]	kcat [2, 8]	kcat/Km [2, 8]	also measured
GePTS1 (Glycyrrhiza echinata)	–	–	–	–	–	–	Km [1, 5]: 680 µM; kcat [1, 5]: 15.9 s⁻¹; kcat/Km [1, 5]: 23400 M⁻¹ s⁻¹; Km [2, 6]: 145 µM; kcat [2, 6]: 59.9 s⁻¹; kcat/Km [2, 6]: 413000 M⁻¹ s⁻¹
GePTS1 (Glycyrrhiza echinata; D50A)	520 µM	0.2 s⁻¹	370 M⁻¹ s⁻¹	1,175 μM	4.9 s⁻¹	4180 M⁻¹ s⁻¹	–
GePTS1 (Glycyrrhiza echinata; D83A)	665 µM	1.3 s⁻¹	1960 M⁻¹ s⁻¹	1,300 μM	6.3 s⁻¹	4870 M⁻¹ s⁻¹	–
GePTS1 (Glycyrrhiza echinata; Y103F)	3,320 μM	5.9 s⁻¹	1830 M⁻¹ s⁻¹	555 µM	6.9 s⁻¹	12300 M⁻¹ s⁻¹	–
GePTS1 (Glycyrrhiza echinata; Y181F)	5,665 μM	4 s⁻¹	710 M⁻¹ s⁻¹	825 µM	5.2 s⁻¹	6310 M⁻¹ s⁻¹	–
PsPTS1 (Lathyrus oleraceus)	–	–	–	–	–	–	Km [3]: 830 µM; kcat [3]: 3.3 s⁻¹; kcat/Km [3]: 3930 M⁻¹ s⁻¹; Km [4]: 890 µM; kcat [4]: 50.5 s⁻¹; kcat/Km [4]: 56800 M⁻¹ s⁻¹
